# Measured values from article PMC9463278, “Development and Validation of Arc Nanobodies: New Tools for Probing Arc Dynamics and Function” (Neurochemical Research, 2022).
# B1: mutant rat Arc (Arc^s113−119A) (natural protein, UniProt Q63053 1-396, looked up)
# chain: MELDHMTTGGLHAYPAPRGGPAAKPNVILQIGKCRAEMLEHVRRTHRHLLTEVSKQVERELKGLHRSVGKLENNLDGYVPTGDSQRWKKSIKACLCRCQETIANLERWVKREAAAAAAAFYRLERWADRLESMGGKYPVGSEPARHTVSVGVGGPEPYCQEADGYDYTVSPYAITPPPAAGELPEQESVGAQQYQSWVPGEDGQPSPGVDTQIFEDPREFLSHLEEYLRQVGGSEEYWLSQIQNHMNGPAKKWWEFKQGSVKNWVEFKKEFLQYSEGTLSREAIQRELDLPQKQGEPLDQFLWRKRDLYQTLYVDAEEEEIIQYVVGTLQPKFKRFLRHPLPKTLEQLIQRGMEVQDGLEQAAEPSVTPLPTEDETEALTPALTSESVASDRTQPE
# notes: Activity-regulated cytoskeleton-associated protein (Arc, Arg3.1), rat; residues of the oligomerization motif 113-MHVWREV-119 substituted to alanine; also called purified mutant Arc^s113−119A protein; activity-regulated cytoskeleton-associated protein; source: purified recombinant
# Experiments:
# [1] = biological target: Arc NL (Rattus norvegicus) (UniProt Q63053); experiment: ITC; conditions: cited from earlier work
# [2] = biological target: the molecule itself; experiment: native gel or EMSA; different amounts of purified Arc^s113−119A in native sample buffer, native PAGE on 4-15% Tris-Glycine gels; bands detected by immunoblotting with ALFA-ArcNbs and anti-ALFA HRP-coupled sdAb
Molecule,Kd [1],binding result [2]
stargazin (from UniProt Q71RJ2),0.0349 µM,–
B1,–,binds
